Legend:
[1] = biological target: rat ANP receptor (NPR-A) (rat) (UniProt P18910); assay: cell-based or functional assay
[2] = biological target: rat CNP receptor (NPR-B) (rat) (UniProt P16067); assay: cell-based or functional assay
Sequence of rat CNP receptor (NPR-B) (rat) (P16067 17-1047): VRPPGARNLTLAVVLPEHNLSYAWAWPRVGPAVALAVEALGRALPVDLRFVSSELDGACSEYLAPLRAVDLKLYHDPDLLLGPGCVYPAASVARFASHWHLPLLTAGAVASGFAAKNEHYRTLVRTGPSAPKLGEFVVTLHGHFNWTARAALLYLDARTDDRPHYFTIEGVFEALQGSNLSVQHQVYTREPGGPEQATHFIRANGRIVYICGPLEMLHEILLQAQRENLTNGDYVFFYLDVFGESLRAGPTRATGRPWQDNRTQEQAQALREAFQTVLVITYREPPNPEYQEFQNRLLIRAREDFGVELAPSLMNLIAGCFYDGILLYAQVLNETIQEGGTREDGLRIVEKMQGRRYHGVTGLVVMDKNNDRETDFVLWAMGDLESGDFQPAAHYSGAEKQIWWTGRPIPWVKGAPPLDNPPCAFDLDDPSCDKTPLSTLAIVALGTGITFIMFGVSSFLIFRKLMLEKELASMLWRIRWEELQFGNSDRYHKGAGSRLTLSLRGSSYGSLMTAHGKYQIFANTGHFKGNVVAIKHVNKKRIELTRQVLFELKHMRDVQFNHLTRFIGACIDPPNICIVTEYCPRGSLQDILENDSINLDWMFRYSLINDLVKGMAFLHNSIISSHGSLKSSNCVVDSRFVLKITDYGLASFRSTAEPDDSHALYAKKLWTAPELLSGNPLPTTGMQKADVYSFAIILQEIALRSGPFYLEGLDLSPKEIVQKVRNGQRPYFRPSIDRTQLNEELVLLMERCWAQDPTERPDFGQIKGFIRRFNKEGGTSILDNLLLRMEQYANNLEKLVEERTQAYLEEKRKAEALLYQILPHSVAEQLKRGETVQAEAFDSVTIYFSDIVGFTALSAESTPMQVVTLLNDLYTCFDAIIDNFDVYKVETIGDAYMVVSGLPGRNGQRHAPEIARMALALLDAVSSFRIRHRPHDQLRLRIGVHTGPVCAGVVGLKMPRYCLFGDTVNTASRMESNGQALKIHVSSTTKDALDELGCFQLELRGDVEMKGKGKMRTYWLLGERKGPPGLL

Sequence of rat ANP receptor (NPR-A) (rat) (P18910 29-1057): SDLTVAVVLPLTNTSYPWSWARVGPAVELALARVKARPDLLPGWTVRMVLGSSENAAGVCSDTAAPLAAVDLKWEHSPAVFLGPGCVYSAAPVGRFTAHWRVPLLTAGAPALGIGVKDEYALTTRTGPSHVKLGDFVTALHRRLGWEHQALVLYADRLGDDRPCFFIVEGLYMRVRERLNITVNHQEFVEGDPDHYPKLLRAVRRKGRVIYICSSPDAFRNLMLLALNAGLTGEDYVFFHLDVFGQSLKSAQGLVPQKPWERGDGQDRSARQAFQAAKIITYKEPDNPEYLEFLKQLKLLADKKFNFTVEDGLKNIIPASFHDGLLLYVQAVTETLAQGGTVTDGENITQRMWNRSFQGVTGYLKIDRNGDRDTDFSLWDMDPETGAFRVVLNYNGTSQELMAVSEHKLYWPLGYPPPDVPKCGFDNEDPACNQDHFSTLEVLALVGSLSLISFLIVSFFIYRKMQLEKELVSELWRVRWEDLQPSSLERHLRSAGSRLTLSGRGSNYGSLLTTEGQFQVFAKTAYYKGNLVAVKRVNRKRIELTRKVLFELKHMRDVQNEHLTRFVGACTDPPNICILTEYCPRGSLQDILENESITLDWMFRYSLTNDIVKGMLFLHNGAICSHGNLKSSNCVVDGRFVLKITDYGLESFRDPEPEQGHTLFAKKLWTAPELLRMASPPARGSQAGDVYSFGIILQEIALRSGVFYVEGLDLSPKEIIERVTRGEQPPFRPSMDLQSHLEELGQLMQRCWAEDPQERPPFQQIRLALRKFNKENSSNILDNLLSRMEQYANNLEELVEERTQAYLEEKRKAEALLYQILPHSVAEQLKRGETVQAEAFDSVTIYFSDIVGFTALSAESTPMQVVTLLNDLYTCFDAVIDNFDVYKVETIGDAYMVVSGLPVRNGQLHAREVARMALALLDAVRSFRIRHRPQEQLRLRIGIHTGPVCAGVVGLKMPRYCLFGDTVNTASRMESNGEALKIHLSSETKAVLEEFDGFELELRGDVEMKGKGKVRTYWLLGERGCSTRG

| EC50, luminescence of cGMP reporter cells [2] | Substance | EC50, fluorescence of cGMP reporter cells [1] |
| --- | --- | --- |
|  | ANP (Bachem, H-2100) (peptide) | 0.22 nM |
|  | BNP (Bachem, H-5968) (peptide) | 2.9 nM |
| 0.024 nM | CNP (Bachem, H-1296) (peptide) |  |

Source: patent publication US20210079056A1
